# T1: RIG-I (recombinant) (human? (GeneID 23586), UniProt O95786 1-925)
# T1 sequence: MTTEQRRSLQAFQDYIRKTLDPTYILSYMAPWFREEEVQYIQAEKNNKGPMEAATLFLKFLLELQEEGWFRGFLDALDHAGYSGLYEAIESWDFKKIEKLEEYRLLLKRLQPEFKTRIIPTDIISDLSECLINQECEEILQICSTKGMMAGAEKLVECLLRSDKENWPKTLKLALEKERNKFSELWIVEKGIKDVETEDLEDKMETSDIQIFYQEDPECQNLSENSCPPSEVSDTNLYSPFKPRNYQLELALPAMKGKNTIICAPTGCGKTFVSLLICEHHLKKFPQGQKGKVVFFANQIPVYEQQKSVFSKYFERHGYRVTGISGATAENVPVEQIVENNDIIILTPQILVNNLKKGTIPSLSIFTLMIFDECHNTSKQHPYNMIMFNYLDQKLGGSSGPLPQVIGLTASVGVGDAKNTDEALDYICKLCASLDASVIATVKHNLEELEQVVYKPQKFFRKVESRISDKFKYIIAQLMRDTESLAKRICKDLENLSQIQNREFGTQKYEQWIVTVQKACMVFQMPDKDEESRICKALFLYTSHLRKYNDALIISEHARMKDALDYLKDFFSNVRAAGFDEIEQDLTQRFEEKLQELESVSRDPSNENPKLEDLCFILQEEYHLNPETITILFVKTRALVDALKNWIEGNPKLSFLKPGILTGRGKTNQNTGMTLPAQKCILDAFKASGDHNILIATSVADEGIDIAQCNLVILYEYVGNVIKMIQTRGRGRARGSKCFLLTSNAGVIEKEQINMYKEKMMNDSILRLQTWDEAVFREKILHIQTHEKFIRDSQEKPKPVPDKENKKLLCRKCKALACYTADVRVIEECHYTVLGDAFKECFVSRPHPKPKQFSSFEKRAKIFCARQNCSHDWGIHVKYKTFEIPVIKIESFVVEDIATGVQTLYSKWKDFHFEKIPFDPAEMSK
# Target: T1, RIG-I (recombinant)
# Test: EMSA
binder,measurement,value
"5'-pppA synthetic 24 bp dsRNA (dsRNA, 5'-ppp on sense strand only) RNA 1: AGCAAAAGCAGGGUGACAAAGACA RNA 2: UGUCUUUGUCACCCUGCUUUUGCU",Kd,0.4 nM
